The record followed here is patent US20150285818A1, “Switchable Reporter Enzymes for Homogenous Antibody Detection” (TECHNISCHE UNIVERSITEIT EINDHOVEN, priority 2012, published 2015).

The term Kd denotes the free concentration of one partner at which half of the binding sites on the other are occupied at equilibrium, for simple one-to-one binding. Higher therefore signals lower affinity. What is called EC50 (read off the curve) is the concentration that produces a half-maximal response. High values mean weaker potency, low ones greater potency.

Assay [1] has as its target …-GGG-C(fluorescein). The assay is described as follows: fluorescence polarization, 2 nM labelled peptide titrated with antibody.
Assay [2] addresses …-GGG-C(fluorescein). Nature of the assay: fluorescence polarization, 2 nM fluorescein-labelled peptide titrated with antibody.
Assay [3] has as its target …-GGG-C(fluorescein) (HIV1). The assay is described as follows: fluorescence polarization, 10 nM labelled peptide titrated with antibody.
The target in assay [4] is WEKIRLR-GGG-C(fluorescein) (HIV1). The assay is described as above.
In assay [5] the target is …-GGG-C(fluorescein) (HIV1). Nature of the assay: fluorescence polarization, 10 nM fluorescein-labelled peptide titrated with antibody.
The target in assay [6] is WEKIRLR-GGG-C(fluorescein) (HIV1). Described as above.

Turning to “HA monoclonal antibody (clone 2-2.2.14, Thermo Scientific)”, the Kd with …-GGG-C(fluorescein) [1] came to 0.58 nM. In the assay with …-GGG-C(fluorescein) [2], this substance displayed an EC50 (read off the curve) of 1 to 2 nM.

As for “anti-HIV-1-p17 antibody (clone 32/1.24.89, Zeptometrix)”, the Kd in assay [3] is 24 nM; in assay [4], 3.3 µM. Further, the EC50 (read off the curve) is 30 nM in assay [5] and 3000 nM in assay [6].
